The test deals with Ultramarine fluorescent protein. Briefly: AUC.

One substance from article PMC10276540 can be followed below.

As usually defined, the stoichiometry N is a count of units in the complex or per binding partner.

Turning to Ultramarine fluorescent protein, the stoichiometry N is 2.
